Kd, stoichiometry N and dH data for five substances are collected here from paper PMC4703387, “Identification of the Calmodulin-Binding Domains of Fas Death Receptor” (PLoS ONE, 2016).

Read-outs that look alike come from different tables or passages of the source.

The target of assay [1] is calmodulin (Homo sapiens) (UniProt P0DP23). To be noted: cited from earlier work.
Assay [2] shares this target. The note with it: cited from earlier work. The source holds these as a separate data set.
Assay [3] has as its target calmodulin, calcium-bound (Ca2+/CaM) (UniProt P0DP23). Nature of the assay: SEC; Superdex 75 (10/300 GL), 50 mM Tris pH 7.0, 100 mM NaCl, 5 mM CaCl2; samples ~50-150 uM; fractions by SDS-PAGE; calibration with a low molecular weight kit.
Assay [4] concerns the target Fas-Pep2 (FasDD residues 251-288). The experiment in a line: ITC; Ca2+/CaM at 195 uM titrated into Fas-Pep2 at 17 uM, 35°C, 50 mM HEPES pH 7.0, 100 mM NaCl, 5 mM CaCl2; single set of identical sites.
Assay [5] concerns the target Fas-Pep1 (FasDD residues 209-239). The experiment in a line: ITC; Ca2+/CaM at 450 uM titrated into Fas-Pep1 at 25 uM, 25°C, 50 mM HEPES pH 7.0, 100 mM NaCl, 5 mM CaCl2; single set of identical sites.

In the case of “Fas death domain death domain (from UniProt P25445)”, the Kd in assay [1] was 2 µM.

Take “Fas death domain peptide 214-238 (from UniProt P25445)”: the dissociation constant (Kd) in assay [2] was 19.5 µM.

“Fas-Pep1 (FasDD residues 209-239) (peptide)”: in assay [3], the stoichiometry N was determined as 1.

In the case of “Fas-Pep2 (FasDD residues 251-288) (peptide)”, in assay [3], the stoichiometry N turned out to be 1.

For “calmodulin, calcium-bound (Ca2+/CaM) (from UniProt P0DP23 1-149) (natural protein)”, in assay [4], the dissociation constant Kd stood at 1.1 µM, the dH was -14.2 kcal/mol and the stoichiometry N stood at 0.9. Also, in assay [5], the Kd stood at 0.3 µM, the dH amounted to 2.15 kcal/mol and the stoichiometry N amounted to 0.95.

Broadly, the Kd is the free concentration of one partner at which half of the binding sites on the other are occupied at equilibrium, for simple one-to-one binding. For orientation: stoichiometry N means a count of units in the complex or per binding partner.
